Test results as given in patent US11395853B2, “Biomimetic drug delivery of an immunomodulatory agent for the treatment of ocular conditions” (University of Pittsburgh-Of the Commonwealth System of …, priority 2016, dated 2022).

Assays:
[1] = test system: ConA-induced DED mice; assay: Aqueous tear production, phenol red cotton thread, ConA-induced DED (Example 1); format: in vivo, Balb/c mice; details: one week after ConA into lacrimal gland; MPs 0.5 mg/20 μl co-injected with ConA; soluble CCL22 2.5 μg in 20 μl; anti-GITR 500 μg i.p. 5 days prior
Description: (§1) Fabrication of Microparticles—Poly (lactic-co-glycolic) acid (PLGA) microparticles encapsulating recombinant mouse CCL22 (R&D Systems, Minneapolis Minn.) were made according to a previously reported water-oil-water double emulsion technique. Glowacki, A. J. et al. Proc. Natl. Acad. Sci. U.S.A 110, 18525-30 (2013). Briefly, 200 mg of RG502H poly(D,L-lactide-co-glycolide) polymer (Sigma Aldrich, St. Louis, Mo.) was dissolved in 4 ml of dichloromethane and vortexed. Then […], of an aqueous solution containing 5 μg of recombinant mouse CCL22 and 2 mg of BSA (Sigma Aldrich, St. Louis, Mo.) with […] NaCl was pipetted into the mixture of polymer and dichloromethane. […] Release media (supernatant) was sampled periodically and CCL22 concentrations were quantified using an enzyme-linked immunosorbent assay (ELISA) (R&D Systems, Minneapolis, Minn.). […] Measurement of Tear Production—Aqueous tear production was measured with phenol red cotton threads (Oasis Medical, San Dimas, Calif.). Thread was placed in the lateral canthus of the eye for a period of 60 seconds, and wetting was measured in millimeters using a dissecting microscope (Olympus SZX10, Waltham, Mass.). […] The surface of the cornea was evaluated using a dissecting microscope with a fluorescent excitation lamp (Olympus SZX10, Waltham, Mass.). […]

[2] = test system: ConA-induced DED mice; assay: Corneal permeability, corneal fluorescein staining score, ConA-induced DED (Example 1); format: in vivo, Balb/c mice; details: one week after ConA into lacrimal gland; MPs or soluble CCL22 co-injected with ConA; anti-GITR 500 μg i.p. 5 days prior
Description: as §1

B1: Soluble CCL22: recombinant mouse CCL22 chemokine injected in solution with ConA at 2.5 μg in 20 μl (protein, UniProt O88430 25-92, looked up)
C-C motif chemokine 22: GPYGANVEDSICCQDYIRHPLPSRLVKEFFWTSKSCRKPGVVLITVKNRDICADPRQVWVKKLLHKLS
aqueous tear production [1]: unable to prevent loss of tear production | corneal fluorescein staining (corneal permeability) [2]: central punctate fluorescein staining was observed
